Laboratory results taken from paper PMC5429695, “Assembly of Ruminococcus flavefaciens cellulosome revealed by structures of two cohesin-dockerin complexes” (Scientific Reports, 2017).

How the values were obtained:
Assay in all cases: ITC; 308 K; dockerin in the cell (stirred at 307 revolutions/min) titrated with 28 injections of 10 uL cohesin at 220 s intervals; proteins in 50 mM HEPES pH 7.5, 0.5 mM CaCl2, 0.5 mM TCEP; single-site model
Settings in all cases: both partners purified
[1] = target: T1, RfDoc1a Q83A, thioredoxin A fusion (R. flavefaciens FD-1)
T1 construct: numbers count on: the recombinant construct of the crystal structure (RfDoc1a numbering of PDB 5M2O); mutant of m3 (pHTP2 derivative); see the note of m3 on limits and numbering; source: E. coli, purified (IMAC, His GraviTrap)

[2] = target: T2, RfDoc1a L87A, thioredoxin A fusion (R. flavefaciens FD-1)
T2 construct: numbers count on: the recombinant construct of the crystal structure (RfDoc1a numbering of PDB 5M2O); mutant of m3 (pHTP2 derivative); see the note of m3 on limits and numbering; source: E. coli, purified (IMAC, His GraviTrap)

[3] = target: T3, RfDoc1a V43A + Q47A, thioredoxin A fusion (R. flavefaciens FD-1)
T3 construct: numbers count on: the recombinant construct of the crystal structure (RfDoc1a numbering of PDB 5M2O); mutant of m3 (pHTP2 derivative); see the note of m3 on limits and numbering; source: E. coli, purified (IMAC, His GraviTrap)

[4] = target: T4, RfDoc1a, group 1a dockerin, thioredoxin A fusion, wild type (R. flavefaciens FD-1)
T4 construct: numbers count on: the recombinant construct of the crystal structure (RfDoc1a numbering, residues 23-96 seen in PDB 5M2O); also called Doc1aWT; source: E. coli, purified (IMAC, His GraviTrap)

[5] = target: T5, RfDoc1b, group 1b dockerin, thioredoxin A fusion, wild type (R. flavefaciens FD-1)
T5 construct: group 1b dockerin (Doc1b), C-terminal component of protein WP_009982745, a family 9 glycoside hydrolase of R. flavefaciens FD-1, residues 783-862; numbers count on: the recombinant construct of the crystal structure (RfDoc1b numbering, residues 24-102 seen in PDB 5M2S); also called Doc1bWT; Doc1b WT; source: E. coli, purified (IMAC, His GraviTrap)

[6] = target: T6, RfDoc1a I39A, thioredoxin A fusion (R. flavefaciens FD-1)
T6 construct: numbers count on: the recombinant construct of the crystal structure (RfDoc1a numbering of PDB 5M2O); mutant of m3 (pHTP2 derivative); see the note of m3 on limits and numbering; source: E. coli, purified (IMAC, His GraviTrap)

[7] = target: T7, RfDoc1a S40A, thioredoxin A fusion (R. flavefaciens FD-1)
T7 construct: numbers count on: the recombinant construct of the crystal structure (RfDoc1a numbering of PDB 5M2O); mutant of m3 (pHTP2 derivative); see the note of m3 on limits and numbering; source: E. coli, purified (IMAC, His GraviTrap)

[8] = target: T8, RfDoc1a V43A, thioredoxin A fusion (R. flavefaciens FD-1)
T8 construct: numbers count on: the recombinant construct of the crystal structure (RfDoc1a numbering of PDB 5M2O); mutant of m3 (pHTP2 derivative); see the note of m3 on limits and numbering; source: E. coli, purified (IMAC, His GraviTrap)

[9] = target: T9, RfDoc1a Q47A, thioredoxin A fusion (R. flavefaciens FD-1)
T9 construct: numbers count on: the recombinant construct of the crystal structure (RfDoc1a numbering of PDB 5M2O); mutant of m3 (pHTP2 derivative); see the note of m3 on limits and numbering; source: E. coli, purified (IMAC, His GraviTrap)

[10] = target: T10, RfDoc1a K54A, thioredoxin A fusion (R. flavefaciens FD-1)
T10 construct: numbers count on: the recombinant construct of the crystal structure (RfDoc1a numbering of PDB 5M2O); mutant of m3 (pHTP2 derivative); see the note of m3 on limits and numbering; source: E. coli, purified (IMAC, His GraviTrap)

Ka [1]: 1.54e+08 M⁻¹
dH [1]: -39.5 ± 0.83 kcal/mol
stoichiometry N [1]: 1
Ka [2]: 2.81e+07 M⁻¹
dH [2]: -59.84 ± 0.19 kcal/mol
stoichiometry N [2]: 1
Ka [3]: 436000 M⁻¹
dH [3]: -48.79 ± 0.39 kcal/mol
stoichiometry N [3]: 1
Ka [4]: 1.18e+08 M⁻¹
dH [4]: -50.68 ± 0.29 kcal/mol
stoichiometry N [4]: 1
Ka [5]: 1.03e+07 M⁻¹
dH [5]: -64.94 ± 0.44 kcal/mol
stoichiometry N [5]: 1
Ka [6]: 3.86e+06 M⁻¹
dH [6]: -57.26 ± 0.12 kcal/mol
stoichiometry N [6]: 1
Ka [7]: 1.09e+08 M⁻¹
dH [7]: -46.6 ± 0.15 kcal/mol
stoichiometry N [7]: 1
Ka [8]: 1.91e+06 M⁻¹
dH [8]: -52.08 ± 0.14 kcal/mol
stoichiometry N [8]: 1
Ka [9]: 1.71e+07 M⁻¹
dH [9]: -48.27 ± 0.12 kcal/mol
stoichiometry N [9]: 1
Ka [10]: 1.96e+07 M⁻¹
dH [10]: -59.73 ± 0.25 kcal/mol
stoichiometry N [10]: 1
B1: RfCohScaB3, ScaB cohesin 3 with C-terminal hexa-histidine tag, wild type (domain or fragment)
chain: MPVANADVVFDFQNYTAKAGDEVTVDVLVDSKNKPISAMDVKFKVDSPLTIEEIDKESLAFNTTVMTNMAILGANFKSLDDKGEPLVPKDGAAVFTLYVNVPANTPDGTYYVGFNGKNEVHKSNDGSQFTVASKNGAITVGTPNEEG
